In the assay the target is sugar chain-deficient cynomolgus CD27 (C-terminal His tag) expressed on Lec8 cells (cynomolgus). The experiment in a line: flow cytometry (FCM) on cynomolgus CD27/Lec8 cells (Example 11(5)) [A]. (Flow cytometry measures light scatter and fluorescence of single cells or particles in a stream.)

One molecule from patent publication US20120093805A1 can be followed below.

A word on the EC50 (read off the curve): it is the concentration needed to bring the measured effect to its halfway point. A high value points to lower potency in that assay.

B1: anti-sugar chain-deficient CD27 chimeric antibody chimeric KM4030 (antibody, human IgG1, V domains shown)
VH: EVQLVESGGGLVQPGRSLKLSCVASGFTFNNYWMTWIRQAPGKGLEWIASITNSGGSTYYPDSVKGRFTISRDNAKGTLYLQMNSLRSEDTATYYCTRDVNTYYGYNALFDYWGQGVMVTVSS
VL: DIQMTQSPSVLSASVGDRVTLNCKASQNINEYLNWYQQKLGEAPKLLIYNTNNLQTGIPSRFSGSGSGTDFTLTISSLQPEDFAAYFCFQHNSWPYTFGAGTKLELK
Consider B1, for which the EC50 (read off the curve) was determined as 0.2 µg/mL.
